We go through one molecule from PMC8652540.

The data set concerns the target SARS-CoV-2 nucleocapsid protein (NCAP, N protein) (SARS-CoV-2, UniProt P0DTC9 1-419). Kind of data set: EMSA. The following applies: protein: recombinant; tags: N-terminal GFP and His (N-GFP-NCAP-His, pET-28a(+)-TEV) as purified; EMSA text says only recombinant NCAP; chain copies: 2; single strand (legend says 24 bp). In general terms: Mobility shift assays separate free from complexed probe on a gel.

As to UGCUUACGGUUUCGUCCGUGUUGC (ssRNA) [5'UTR leader RNA probe], the binding result is “binds”.
